The record followed here is patent US6989144.

In the assay the target is GPVI on baboon platelets (baboon). The assay is described as follows: flow cytometry, washed baboon platelets; positive control.

B1: convulxin (Cvx) purified from the venom of Crotalus durissus terrificus (ligand)
chain 1: GLHCPSDWYYYDQHCYRIFNEEMNWEDAEWFCTKQAKGAHLVSIKSAKEADFVAWMVTQNIEESFSHVSIGLRVQNKEKQCSTKWSDGSSVSYDNLLDLYITKCSLLKKETGFRKWFVASCIGKIPFVCKFPPQC
chain 2: GFCCPSHWSSYDRYCYKVFKQEMTWADAEKFCTQQHTGSHLVSFHSTEEVDFVVKMTHQSLKSTFFWIGANNIWNKCNWQWSDGTKPEYKEWHEEFECLISRTFDNQWLSAPCSDTYSFVCKFEA
Regarding B1, the Baboon fluorescence intensity amounted to 72 and the Baboon platelets % positive worked out at 95%.
